Reference: paper PMC11754754, “Structure and mechanism of biosynthesis of Streptococcus mutans cell wall polysaccharide” (Nature Communications, 2025)

Key:
[1] = system: CC(C)=CCC/C(C)=C/CC/C(C)=C/CC/C(C)=C\CC/C(C)=C\CC/C(C)=C\CC/C(C)=C\CC/C(C)=C\CC/C(C)=C\CC/C(C)=C\CC/C(C)=C\COP(=O)(O)O; test: cells, lysate or membranes; settings: co-substrate UDP-[3H]Glc, Und-P dispersed in CHAPS, 20 mM MgCl2, pH 7.4, 37 °C
Excerpt: (§2) radiometric [3H]Glc-lipid formation, E. coli membrane fraction on SccP

[2] = system: O=c1ccn([C@@H]2O[C@H](CO[P@@](=O)(O)O[P@@](=O)(O)O[C@H]3O[C@H](CO)[C@@H](O)[C@H](O)[C@H]3O)[C@@H](O)[C@H]2O)c(=O)[nH]1; test: cells, lysate or membranes; settings: labelled compound (UDP-[3H]Glc), co-substrate Und-P in CHAPS, 20 mM MgCl2, pH 7.4, 37 °C
Excerpt: as §2

[3] = system: CC(C)=CCC/C(C)=C/CC/C(C)=C/CC/C(C)=C\CC/C(C)=C\CC/C(C)=C\CC/C(C)=C\CC/C(C)=C\CC/C(C)=C\CC/C(C)=C\CC/C(C)=C\COP(=O)(O)O; test: radiometric [3H]Glc-lipid formation, E. coli membrane fraction; assay type: biochemical, Streptococcus mutans; settings: co-substrate UDP-[3H]Glc, Und-P dispersed in CHAPS, 20 mM MgCl2, pH 7.4, 37 °C
Excerpt: (§1) radiometric [3H]Glc-lipid formation, E. coli membrane fraction on SccN

[4] = system: O=c1ccn([C@@H]2O[C@H](CO[P@@](=O)(O)O[P@@](=O)(O)O[C@H]3O[C@H](CO)[C@@H](O)[C@H](O)[C@H]3O)[C@@H](O)[C@H]2O)c(=O)[nH]1; test: as above; assay type: biochemical, Streptococcus mutans; settings: labelled compound (UDP-[3H]Glc), co-substrate Und-P in CHAPS, 20 mM MgCl2, pH 7.4, 37 °C
Excerpt: as §1

Work on SccP (Streptococcus mutans UA159) yielded a Km [1] of 2.56 µM, a Vmax [1] of 0.96 µmol/min/mg and a Km [2] of 2.50 µM. The Vmax [2] was 0.93 µmol/min/mg.
SccN (Streptococcus mutans UA159) was tested, and the Km [3] was 5.85 µM, the Vmax [3] was 5.42 µmol/min/mg and the Km [4] was 1.61 µM. It also gave a Vmax [4] of 3.16 µmol/min/mg.
